Reference: paper PMC11187062
pKd: −log10 of the molar value. Where “and” joins values, the source holds several entries; their conditions need not be identical. Identical values can stand only once. Like-named read-outs stand apart in the source and are kept apart here.

What was measured:
hPHD D334A/D337A (human) = hPHD D334A/D337A (human) (UniProt Q96T88); assay: ITC; Microcal PEAQ-ITC, 293 K, 10 mM HEPES pH 7.5, 150 mM NaCl, 0.25 mM TCEP; one-site model; at least three independent titrations
[1] = biological target: UHRF1 PHD finger PHD (Mus musculus) (UniProt Q8VDF2); settings: cited from earlier work
[2] = biological target: UHRF1 PHD finger PHD (Homo sapiens) (UniProt Q96T88); settings: cited from earlier work
[3] = biological target: human UHRF1 PHD finger, residues 299-366, D334A/D337A (human) (UniProt Q96T88); assay: ITC; Microcal PEAQ-ITC, 293 K, 10 mM HEPES pH 7.5, 150 mM NaCl, 0.25 mM TCEP, one-site model; which partner was titrated is not stated; single titrations and their means
[4] = biological target: UHRF1 PHD finger PHD (Mus musculus) (UniProt Q8VDF2); settings: cited from earlier work; remark: listed apart in the source
[5] = biological target: UHRF1 PHD finger PHD (Homo sapiens) (UniProt Q96T88); settings: cited from earlier work; remark: listed apart in the source

Chain of human UHRF1 PHD finger, residues 299-366, D334A/D337A (human) (Q96T88 299-366 D334A/D337A): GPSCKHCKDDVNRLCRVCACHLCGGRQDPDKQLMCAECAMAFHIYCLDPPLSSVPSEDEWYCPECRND
Chain of UHRF1 PHD finger PHD (Mus musculus) (Q8VDF2 301-374): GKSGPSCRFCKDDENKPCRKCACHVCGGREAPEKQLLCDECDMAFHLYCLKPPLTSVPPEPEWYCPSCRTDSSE
Chain of UHRF1 PHD finger PHD (Homo sapiens) (Q96T88 307-369): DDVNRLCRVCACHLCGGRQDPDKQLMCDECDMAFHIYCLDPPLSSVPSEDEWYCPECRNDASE
Chain of hPHD D334A/D337A (human) (Q96T88 299-366 D334A/D337A): as the sequence (Q96T88 299-366 D334A/D337A) above
Chain of PAF15 1-10 (Q15004 whole entry, looked up, tested part not stated): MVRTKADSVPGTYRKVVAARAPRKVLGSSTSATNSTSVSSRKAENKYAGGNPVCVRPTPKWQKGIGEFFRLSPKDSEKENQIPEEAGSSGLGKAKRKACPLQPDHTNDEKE
Chain of PAF15 (Q15004 whole entry): as the sequence (Q15004 whole entry, looked up, tested part not stated) above
Chain of DPPA3 (Q8QZY3 whole entry): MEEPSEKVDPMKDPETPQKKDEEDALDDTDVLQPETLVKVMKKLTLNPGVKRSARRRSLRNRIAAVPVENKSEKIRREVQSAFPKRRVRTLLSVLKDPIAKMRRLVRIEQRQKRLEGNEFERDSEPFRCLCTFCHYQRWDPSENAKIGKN

human DPPA3, residues 81–118 (recombinant) (domain or fragment)
pKd (hPHD D334A/D337A (human)): < 3.94

PAF15 (from UniProt Q15004)
pKd [1]: 5.45

histone H3 1-15 (from UniProt P68431)
pKd [2]: 5.77

human DPPA3, residues 81-118 (domain or fragment)
pKd [3]: 3.94 and 4.04 and 3.86

DPPA3 (from UniProt Q8QZY3)
pKd [4]: 7.56

PAF15 1-10 (from UniProt Q15004)
pKd [5]: 5.66
